Patent US5310662

Key:
[1] = test system: hGR G479 479G (Homo sapiens); details: immunoprecipitation DNA binding; transcription 65
[2] = test system: hGR G474 474G (Homo sapiens); details: immunoprecipitation DNA binding; transcription 60
[3] = test system: hGR-SB (human glucocorticoid receptor, wild-type-equivalent parent) (Homo sapiens); details: immunoprecipitation DNA binding, reference; transcription 100
[4] = test system: hGR G467 467G (Homo sapiens); details: immunoprecipitation DNA binding; transcription 40; may be unstable in vitro
[5] = test system: hGR G476 476G (Homo sapiens); details: immunoprecipitation DNA binding; transcription <1
[6] = test system: hGR G431 C431G (Homo sapiens); details: immunoprecipitation DNA binding; transcription 80
[7] = test system: hGR G462 462G (Homo sapiens); details: immunoprecipitation DNA binding; transcription 80
[8] = test system: hGR G445 445G (Homo sapiens); details: immunoprecipitation DNA binding; transcription <1
[9] = test system: hGR G437 437G (Homo sapiens); details: immunoprecipitation DNA binding; transcription 20
[10] = test system: hGR G465 465G (Homo sapiens); details: immunoprecipitation DNA binding; transcription 1
[11] = test system: hGR G432 432G (Homo sapiens); details: immunoprecipitation DNA binding; transcription 10
[12] = test system: hGR G471 471G (Homo sapiens); details: immunoprecipitation DNA binding; transcription 10
[13] = test system: hGR G426 D426G (Homo sapiens); details: immunoprecipitation DNA binding; transcription 75
[14] = test system: hGR G444 444G (Homo sapiens); details: immunoprecipitation DNA binding; transcription <1
[15] = test system: hGR G457 457G (Homo sapiens); details: immunoprecipitation DNA binding; transcription <1
[16] = test system: hGR G463 463G (Homo sapiens); details: immunoprecipitation DNA binding; transcription <1
[17] = test system: hGR G473 473G (Homo sapiens); details: immunoprecipitation DNA binding; transcription <1
[18] = test system: hGR delta450-487 del450-487 (positions given are the non-deleted residues at the junction) (Homo sapiens); details: immunoprecipitation DNA binding; transcription <1
[19] = test system: hGR G423 423G (Homo sapiens); details: immunoprecipitation DNA binding; transcription <1
[20] = test system: hGR delta420-451 del420-451 (positions given are the non-deleted residues at the junction) (Homo sapiens); details: immunoprecipitation DNA binding; transcription <1
[21] = test system: hGR G450 450G (Homo sapiens); details: immunoprecipitation DNA binding; transcription 60
[22] = test system: hGR G441 441G (Homo sapiens); details: immunoprecipitation DNA binding; transcription <1
[23] = test system: hGR G486 486G (Homo sapiens); details: immunoprecipitation DNA binding; transcription 10; may be unstable in vitro
[24] = test system: hGR G481 481G (Homo sapiens); details: immunoprecipitation DNA binding; transcription <1
[25] = test system: hGR G470 470G (Homo sapiens); details: immunoprecipitation DNA binding; transcription 3
[26] = test system: hGR G424 424G (Homo sapiens); details: immunoprecipitation DNA binding; transcription <1
[27] = test system: hGR G433 433G (Homo sapiens); details: immunoprecipitation DNA binding; transcription 2
[28] = test system: hGR G446 446G (Homo sapiens); details: immunoprecipitation DNA binding; transcription 40; may be unstable in vitro
[29] = test system: hGR G477 477G (Homo sapiens); details: immunoprecipitation DNA binding; transcription <1
[30] = test system: hGR G480 480G (Homo sapiens); details: immunoprecipitation DNA binding; transcription 90
[31] = test system: hGR G447 447G (Homo sapiens); details: immunoprecipitation DNA binding; transcription <1
[32] = test system: hGR G421 421G (Homo sapiens); details: immunoprecipitation DNA binding; transcription <1
[33] = test system: hGR G460 460G (Homo sapiens); details: immunoprecipitation DNA binding; transcription 55
[34] = test system: hGR G453 453G (Homo sapiens); details: immunoprecipitation DNA binding; transcription 90
[35] = test system: hGR G442 K442G (Homo sapiens); details: immunoprecipitation DNA binding; transcription <1; specificity minimally affected
[36] = test system: hGR G438 438G (Homo sapiens); details: immunoprecipitation DNA binding; transcription <1
[37] = test system: hGR G455 455G (Homo sapiens); details: immunoprecipitation DNA binding; transcription 80; may be unstable in vitro
[38] = test system: G-gal-G (hGR with DNA-binding domain replaced by GAL4 residues 1-74) (Homo sapiens / Saccharomyces cerevisiae); test: cell_activity
[39] = test system: GAL4 (Saccharomyces cerevisiae); test: cell_activity; details: CAT reporter; lost on deletion of the GAL4 site

Question: For GRE-containing DNA fragment, which binding signal [1] is on record?
Answer: 40 % of hGR-SB

Question: What about the binding signal [2] of the same substance?
Answer: 95 % of hGR-SB

Question: What about the binding signal [3] of the same substance?
Answer: 100%

Question: And the binding signal [4]?
Answer: 6 % of hGR-SB

Question: And the binding signal [5]?
Answer: < 1 % of hGR-SB

Question: What about the binding signal [6] of the same substance?
Answer: 10 % of hGR-SB

Question: What about the binding signal [7] of the same substance?
Answer: 40 % of hGR-SB

Question: And the binding signal [8]?
Answer: < 1 % of hGR-SB

Question: And the binding signal [9]?
Answer: 8 % of hGR-SB

Question: What about the binding signal [10] of the same substance?
Answer: 1 % of hGR-SB

Question: What about the binding signal [11] of the same substance?
Answer: 30 % of hGR-SB

Question: What about the binding signal [12] of the same substance?
Answer: 6 % of hGR-SB

Question: What about the binding signal [13] of the same substance?
Answer: 75 % of hGR-SB

Question: What about the binding signal [14] of the same substance?
Answer: 1 % of hGR-SB

Question: What about the binding signal [15] of the same substance?
Answer: 2 % of hGR-SB

Question: What about the binding signal [16] of the same substance?
Answer: 1 % of hGR-SB

Question: And the binding signal [17]?
Answer: < 1 % of hGR-SB

Question: And the binding signal [18]?
Answer: 1 % of hGR-SB

Question: What about the binding signal [19] of the same substance?
Answer: < 1 % of hGR-SB

Question: And the binding signal [20]?
Answer: 1 % of hGR-SB

Question: What about the binding signal [21] of the same substance?
Answer: 50 % of hGR-SB

Question: And the binding signal [22]?
Answer: < 1 % of hGR-SB

Question: What about the binding signal [23] of the same substance?
Answer: 1 % of hGR-SB

Question: And the binding signal [24]?
Answer: 3 % of hGR-SB

Question: And the binding signal [25]?
Answer: 4 % of hGR-SB

Question: What about the binding signal [26] of the same substance?
Answer: 1 % of hGR-SB

Question: What about the binding signal [27] of the same substance?
Answer: 1 % of hGR-SB

Question: What about the binding signal [28] of the same substance?
Answer: 6 % of hGR-SB

Question: What about the binding signal [29] of the same substance?
Answer: 1 % of hGR-SB

Question: What about the binding signal [30] of the same substance?
Answer: 50 % of hGR-SB

Question: And the binding signal [31]?
Answer: 2 % of hGR-SB

Question: What about the binding signal [32] of the same substance?
Answer: < 1 % of hGR-SB

Question: And the binding signal [33]?
Answer: 90 % of hGR-SB

Question: And the binding signal [34]?
Answer: 60 % of hGR-SB

Question: What about the binding signal [35] of the same substance?
Answer: 60 % of hGR-SB

Question: And the binding signal [36]?
Answer: < 1 % of hGR-SB

Question: What about the binding signal [37] of the same substance?
Answer: 6 % of hGR-SB

Question: How did the activity (% of deltaMTV-GAL-CAT) ([38]; possible cryptic GAL4 site) turn out when “deltaMTV-CAT promoter (GREs deleted, no GAL4 site)” was run?
Answer: 5

Question: For “deltaMTV-GAL-CAT promoter with synthetic GAL4 site 17MX”, which activity ([38]; CAT reporter, hormone dependent) is on record?
Answer: 500 fold

Question: What about the activity [39] of the same substance?
Answer: 20 fold
